Measured values: article PMC8092228 (mBio, 2021)

Target: LOV construct of Brucella abortus LOV-HK with the Nα helix, the LOV core and half of the Jα helix (wild type) (Brucella abortus)
Assay: SEC with static light scattering (SEC-SLS)

LOV construct of Brucella abortus LOV-HK with the Nα helix, the LOV core and half of the Jα helix (wild type) (domain or fragment)
stoichiometry N: 2
